The assay addresses TMPRSS2 on cells (UniProt O15393). Nature of the assay: cell-based or functional assay.

Turning to Trypstatin (AMBP 284-344) (peptide), the IC50, MERS-CoV spike pseudoparticle entry into CaCo-2 cells (luciferase) was 78 nM and the IC50, SARS-CoV spike pseudoparticle entry into CaCo-2 cells (luciferase) came out at 31 nM.
